These results are taken from patent US20120202747A1 (TORU MIYAZAKI, published 2012).

Assay [1] concerns the target T1, mouse CD36 fused with a FLAG-tag at its C terminus, overexpressed on HEK293 cells (mouse, UniProt Q08857 1-472).
T1 construct: whole, on cells; also called CD36-FLAG; not shown: C-terminal FLAG tag
The assay can be described thus: confocal microscopy of HEK293 cells overexpressing mouse CD36-FLAG, cultured with mouse AIM for 3 hours. How it is done: CD36 is a twice-transmembrane-type molecule, is expressed on adipocytes and macrophages, and is involved in intracellular internalization of many molecules including fatty acids, LDL, and the like. Thus, HEK293 cells in which mouse CD36 fused with a FLAG-tag at its C terminus was overexpressed were produced, and the cells were cultured with mouse AIM for 3 hours. Subsequently, the cells were collected, stained using an anti-AIM antibody and an anti-CD36 antibody, and observed under a confocal microscope.

The target in assay [2] is T2, endogenous FAS (fatty acid synthase) in mouse adipocytes (mouse, UniProt P19096 1-2504).
T2 construct: also called cytosolic FAS
T2 sequence (P19096 whole entry): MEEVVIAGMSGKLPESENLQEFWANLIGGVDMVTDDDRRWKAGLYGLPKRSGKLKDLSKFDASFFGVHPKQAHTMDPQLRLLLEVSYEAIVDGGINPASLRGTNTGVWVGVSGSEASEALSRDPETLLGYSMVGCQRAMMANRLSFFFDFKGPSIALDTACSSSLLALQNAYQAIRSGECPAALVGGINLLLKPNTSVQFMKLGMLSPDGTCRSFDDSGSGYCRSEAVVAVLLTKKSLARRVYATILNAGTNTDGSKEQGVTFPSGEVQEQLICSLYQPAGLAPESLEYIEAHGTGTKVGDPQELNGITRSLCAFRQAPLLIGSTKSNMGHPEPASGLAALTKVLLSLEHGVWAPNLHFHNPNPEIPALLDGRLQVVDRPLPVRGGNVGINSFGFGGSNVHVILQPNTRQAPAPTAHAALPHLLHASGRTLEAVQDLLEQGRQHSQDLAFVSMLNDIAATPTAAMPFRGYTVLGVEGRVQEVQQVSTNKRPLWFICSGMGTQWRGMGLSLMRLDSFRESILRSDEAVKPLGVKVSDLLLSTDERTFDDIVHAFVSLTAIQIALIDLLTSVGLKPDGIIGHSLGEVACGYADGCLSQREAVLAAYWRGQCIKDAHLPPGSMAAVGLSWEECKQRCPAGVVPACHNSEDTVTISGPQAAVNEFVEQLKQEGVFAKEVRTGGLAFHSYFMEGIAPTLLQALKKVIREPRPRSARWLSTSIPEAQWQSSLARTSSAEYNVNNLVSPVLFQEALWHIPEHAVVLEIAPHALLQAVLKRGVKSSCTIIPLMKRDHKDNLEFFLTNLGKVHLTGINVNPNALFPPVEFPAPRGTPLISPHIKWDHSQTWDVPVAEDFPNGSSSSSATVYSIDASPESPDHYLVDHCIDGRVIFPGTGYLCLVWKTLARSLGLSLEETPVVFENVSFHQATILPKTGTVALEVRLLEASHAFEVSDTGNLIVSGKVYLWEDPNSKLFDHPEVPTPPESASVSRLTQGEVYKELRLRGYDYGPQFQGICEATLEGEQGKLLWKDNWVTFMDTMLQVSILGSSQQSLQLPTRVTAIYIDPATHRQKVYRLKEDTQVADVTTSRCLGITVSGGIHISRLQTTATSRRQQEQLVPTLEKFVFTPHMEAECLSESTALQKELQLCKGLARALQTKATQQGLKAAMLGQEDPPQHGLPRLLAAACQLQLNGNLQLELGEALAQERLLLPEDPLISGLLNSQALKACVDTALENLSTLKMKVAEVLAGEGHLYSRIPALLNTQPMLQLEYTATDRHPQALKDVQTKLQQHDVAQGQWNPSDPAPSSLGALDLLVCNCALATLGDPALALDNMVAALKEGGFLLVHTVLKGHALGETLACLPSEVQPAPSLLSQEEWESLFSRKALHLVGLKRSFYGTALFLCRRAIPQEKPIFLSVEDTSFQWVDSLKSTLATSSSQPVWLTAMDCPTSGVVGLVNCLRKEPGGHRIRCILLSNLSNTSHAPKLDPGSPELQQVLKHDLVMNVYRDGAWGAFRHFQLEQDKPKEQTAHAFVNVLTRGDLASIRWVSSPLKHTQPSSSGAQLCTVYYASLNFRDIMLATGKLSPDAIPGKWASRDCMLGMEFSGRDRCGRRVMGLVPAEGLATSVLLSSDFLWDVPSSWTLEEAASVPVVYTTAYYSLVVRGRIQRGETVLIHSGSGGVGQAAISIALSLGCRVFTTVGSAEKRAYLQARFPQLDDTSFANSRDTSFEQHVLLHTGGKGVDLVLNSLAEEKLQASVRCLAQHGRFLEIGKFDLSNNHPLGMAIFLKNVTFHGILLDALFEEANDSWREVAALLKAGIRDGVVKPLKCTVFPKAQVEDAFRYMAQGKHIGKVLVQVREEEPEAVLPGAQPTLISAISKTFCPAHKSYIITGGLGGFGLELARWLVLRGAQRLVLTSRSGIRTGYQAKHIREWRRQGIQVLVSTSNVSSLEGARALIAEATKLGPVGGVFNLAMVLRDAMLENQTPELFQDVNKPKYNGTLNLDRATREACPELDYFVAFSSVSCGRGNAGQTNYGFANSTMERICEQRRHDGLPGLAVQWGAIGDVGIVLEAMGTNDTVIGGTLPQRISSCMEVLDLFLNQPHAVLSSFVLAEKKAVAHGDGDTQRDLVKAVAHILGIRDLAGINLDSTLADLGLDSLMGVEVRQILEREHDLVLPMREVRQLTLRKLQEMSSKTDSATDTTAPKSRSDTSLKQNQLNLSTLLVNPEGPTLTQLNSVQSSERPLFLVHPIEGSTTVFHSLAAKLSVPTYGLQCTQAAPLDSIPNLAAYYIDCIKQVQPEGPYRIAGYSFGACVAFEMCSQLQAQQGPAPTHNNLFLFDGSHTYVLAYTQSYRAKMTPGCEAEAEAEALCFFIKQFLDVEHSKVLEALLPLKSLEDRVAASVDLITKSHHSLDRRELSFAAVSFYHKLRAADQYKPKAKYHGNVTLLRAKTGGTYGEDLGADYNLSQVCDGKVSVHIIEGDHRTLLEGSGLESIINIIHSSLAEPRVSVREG
The assay can be described thus: precipitation of endocytosed HA-tagged rAIM from lysates of mouse adipose tissue with an anti-HA antibody, Western blot for FAS. The method, then: Further, the endocytosed rAIM was precipitated using lysates derived from those adipose tissues to examine whether endogenous FAS was co-precipitated or not. That is, the presence of FAS in the precipitate was analyzed by Western blotting using HA-tagged rAIM and an anti-HA antibody.
For orientation: In western blotting, separated proteins are transferred to a membrane and probed.

T1 sequence (Q08857 whole entry, the tested form may be a part): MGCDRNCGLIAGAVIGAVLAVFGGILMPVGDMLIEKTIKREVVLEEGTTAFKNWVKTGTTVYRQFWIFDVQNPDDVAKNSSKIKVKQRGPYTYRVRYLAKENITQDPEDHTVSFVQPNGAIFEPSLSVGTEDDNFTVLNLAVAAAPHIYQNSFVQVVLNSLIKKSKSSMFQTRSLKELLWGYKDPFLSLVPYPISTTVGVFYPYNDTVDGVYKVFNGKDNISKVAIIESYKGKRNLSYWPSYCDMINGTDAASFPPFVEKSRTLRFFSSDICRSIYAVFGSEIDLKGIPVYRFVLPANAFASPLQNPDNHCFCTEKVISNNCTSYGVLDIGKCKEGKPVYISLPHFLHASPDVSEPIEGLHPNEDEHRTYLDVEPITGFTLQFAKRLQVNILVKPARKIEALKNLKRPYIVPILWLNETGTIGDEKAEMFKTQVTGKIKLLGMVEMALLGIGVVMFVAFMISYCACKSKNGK

B1: recombinant mouse AIM protein (other)
chain: ESPTKVQLVGGAHRCEGRVEVEHNGQWGTVCDDGWDRRDVAVVCRELNCGAVIQTPRGASYQPPASEQRVLIQGVDCNGTEDTLAQCELNYYVFDCSHEEDAGAQCENPDSDLLFIPEDVRLVDGPGHCQGRVEVLHQSQWSTVCKAGWNLQVSKVVCRQLGCGRALLTYGSCNKNTQGKGPIWMGKMSCSGQEANLRSCLLSRLENNCTHGEDTWMECEDPFELKLVGGDTPCSGRLEVLHKGSWGSVCDDNWGEKEDQVVCKQLGCGKSLHPSPKTRKIYGPGAGRIWLDDVNCSGKEQSLEFCRHRLWGYHDCTHKEDVEVICTDFDV
notes: no cleavage site is stated; also called Mouse rAIM; rAIM
Regarding B1, the binding result in assay [1] is on record as “binds”.

B2: mouse AIM (apoptosis inhibitor of macrophage) fused with an HA-tag (other)
chain: B1 chain
notes: also called HA-AIM; AIM tagged with HA; not shown: HA tag
As for B2, the binding result in assay [2] was “binds”.
